Measurements reported in publication PMC6962393, “Targeting the tumor vasculature with engineered cystine-knot miniproteins” (Nature Communications, 2020).

Legend:
Assay in all cases: ELISA
[1] = substrate: FN-B, recombinant human fibronectin extra domain B (EDB) as a single domain; conditions: chain shown with the change; pre-coated human FN-B; detection with HRP-conjugated anti-S-tag antibody; parent: est. 100; read off a plot
[2] = molecular target: FN-67B89, human fibronectin EDB flanked by its surrounding type III domains; conditions: chain shown with the change, FN-67B89 coated 1 µg/well, read off a plot
[3] = molecular target: FN-6789, human fibronectin type III domains 6–9 without EDB; conditions: chain shown with the change, FN-6789 coated 1 µg/well, read off a plot
Chain of FN-6789, human fibronectin type III domains 6–9 without EDB (chain, as listed by the source): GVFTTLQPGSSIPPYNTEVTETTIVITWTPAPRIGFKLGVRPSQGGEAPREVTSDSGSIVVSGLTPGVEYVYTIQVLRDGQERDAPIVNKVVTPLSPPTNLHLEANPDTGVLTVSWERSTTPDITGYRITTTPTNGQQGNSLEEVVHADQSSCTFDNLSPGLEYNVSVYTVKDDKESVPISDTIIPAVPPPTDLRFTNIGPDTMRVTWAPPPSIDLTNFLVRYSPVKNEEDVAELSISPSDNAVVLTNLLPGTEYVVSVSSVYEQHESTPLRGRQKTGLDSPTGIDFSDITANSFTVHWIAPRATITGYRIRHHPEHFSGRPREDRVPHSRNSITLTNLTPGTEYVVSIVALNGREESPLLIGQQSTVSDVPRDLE

Chain of FN-B, recombinant human fibronectin extra domain B (EDB) as a single domain (chain, as listed by the source): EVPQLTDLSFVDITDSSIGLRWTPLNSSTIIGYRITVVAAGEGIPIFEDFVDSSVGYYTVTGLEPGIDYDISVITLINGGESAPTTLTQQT
Chain of FN-67B89, human fibronectin EDB flanked by its surrounding type III domains (chain, as listed by the source): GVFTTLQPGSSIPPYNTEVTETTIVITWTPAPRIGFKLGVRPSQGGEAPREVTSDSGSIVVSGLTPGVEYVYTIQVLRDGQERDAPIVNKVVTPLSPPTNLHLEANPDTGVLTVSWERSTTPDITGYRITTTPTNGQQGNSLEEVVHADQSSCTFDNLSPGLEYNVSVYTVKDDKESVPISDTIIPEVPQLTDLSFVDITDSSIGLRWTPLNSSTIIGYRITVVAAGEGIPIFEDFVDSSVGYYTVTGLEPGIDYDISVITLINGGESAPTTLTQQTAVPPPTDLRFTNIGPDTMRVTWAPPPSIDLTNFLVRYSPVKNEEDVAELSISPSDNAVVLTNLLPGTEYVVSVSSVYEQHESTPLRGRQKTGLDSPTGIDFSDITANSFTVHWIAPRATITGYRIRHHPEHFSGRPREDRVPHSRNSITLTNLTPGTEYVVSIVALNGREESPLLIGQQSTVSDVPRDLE

Row | Binder | percent of parent [1] [%] | further results
1 | AMCTQRKNRIRLCRRDSDCTGACICRGNGYCG [Trx-MC-FN-010, Thioredoxin-A fusion of cystine-knot miniprotein MC-FN-010 P1A] | 130 | –
2 | PMCTQRANRIRLCRRDSDCTGACICRGNGYCG [Trx-MC-FN-010, Thioredoxin-A fusion of cystine-knot miniprotein MC-FN-010 K7A] | 320 | response (Absorbance (450 nm)) ([2]; 1.56 nM Trx-miniprotein, parent: est. 0.70): 0.62; response (Absorbance (450 nm)) ([2]; 3.13 nM Trx-miniprotein, parent: est. 1.5): 1.1; response (Absorbance (450 nm)) ([2]; 6.25 nM Trx-miniprotein, parent: est. 2.2): 1.7; response (Absorbance (450 nm)) ([2]; 12.5 nM Trx-miniprotein, parent: est. 3.0): 2.4; response (Absorbance (450 nm)) ([2]; 25 nM Trx-miniprotein, parent: est. 3.4): 2.9; response (Absorbance (450 nm)) ([2]; 50 nM Trx-miniprotein, parent: est. 3.7): 3.1; response (Absorbance (450 nm)) ([3]; 25 nM Trx-miniprotein, parent: est. 0.30): 0.09; response (Absorbance (450 nm)) ([3]; 50 nM Trx-miniprotein, parent: est. 0.62): 0.13
3 | PACTQRKNRIRLCRRDSDCTGACICRGNGYCG [Trx-MC-FN-010, Thioredoxin-A fusion of cystine-knot miniprotein MC-FN-010 M2A] | 100 | –
4 | PMCTQAKNRIRLCRRDSDCTGACICRGNGYCG [Trx-MC-FN-010, Thioredoxin-A fusion of cystine-knot miniprotein MC-FN-010 R6A] | 83 | –
5 | PMCTQRKNRIRLCRADSDCTGACICRGNGYCG [Trx-MC-FN-010, Thioredoxin-A fusion of cystine-knot miniprotein MC-FN-010 R15A] | 61 | –
6 | PMCTQRKARIRLCRRDSDCTGACICRGNGYCG [Trx-MC-FN-010, Thioredoxin-A fusion of cystine-knot miniprotein MC-FN-010 N8A] | 88 | –
7 | PMCAQRKNRIRLCRRDSDCTGACICRGNGYCG [Trx-MC-FN-010, Thioredoxin-A fusion of cystine-knot miniprotein MC-FN-010 T4A] | 100 | –
8 | PMCTQRKNRIRLCARDSDCTGACICRGNGYCG [Trx-MC-FN-010, Thioredoxin-A fusion of cystine-knot miniprotein MC-FN-010 R14A] | 71 | –
9 | PMCTQRKNAIRLCRRDSDCTGACICRGNGYCG [Trx-MC-FN-010, Thioredoxin-A fusion of cystine-knot miniprotein MC-FN-010 R9A] | 5 | –
10 | PMCTARKNRIRLCRRDSDCTGACICRGNGYCG [Trx-MC-FN-010, Thioredoxin-A fusion of cystine-knot miniprotein MC-FN-010 Q5A] | 65 | –
